We go through 20 sequences from the DeepSol protein solubility set.

This data set is described as follows: soluble on expression in E. coli; label from the status in PepcDB or PDB records.
With “MGSDKIHHHHHHMANSIPSGGNAFALPFAGSRHQFISATCTPDTFSDCLSQSLPPSSNEQAPLGVLRLVVAVSNQKQIGTVLEQLTKDFQALLSRAEVVVQPPFSGQVQISAWLVDTAAIADAPAVIGSPAALQWLFSASNAHALDDTQVSPAFSRQFYDGLESAHAQGHMPDDLLRTWIYIGGITQGPHDETRYQRVNAARQDAFREVSIGMGALCSPFPASTGIGTHGSSLTLGMLSCKIRSGMRVVALENRRQTSAFQYPKEESLIAPLFSRAVAILGDAQAMVFVSGTASIIGAKSVHVGNIEQQTRQTLENINNLLSARLLSDYDCYPATSGLESIVSYTVYIKRREDITVVRAVCAALLPERAVATFVQADVCRTELLVEIEAVAVMPE”, the “soluble on expression in E. coli” value is on record as “not soluble”.

On to “MPCQSKKNPSEVHISSGRDLVQRTFVFSNTTGKDFLLKLITSSEAISFPTNIFRFPPSSHRVIQFRVNSSKLSHWDKLNMSIKGYVMPIYAKNLKQFIDQKSTAGTQDQEAFSLAVKFTDQYSAPQVLINLPGSATCIESMDHPVGIEELDTITAVNIEKDALTAAPIGNLMGFVEEYKRRNTNKGGCWLSNYICGGEEEQKEKKSIRGASRRSSRSSKKSAKSAGSSSCRSQSRKKNKKSQVNVCLEATPCGGSTIQA”, for which the “soluble on expression in E. coli” value was “not soluble”.

For the sequence “SRTVIPGAVKYTLVYDNGSSQAVIATAPEITPTELEATLRQAASHLYSYGRLGSRGNNQLTIRARTIIHAEPGVSVPVYLGKVQRTLTTREDPEMAVEVYLDKFAQLSKPTA”, the “soluble on expression in E. coli” value was “not soluble”.

For the sequence “MSLRGGAQALECYSCVQKADDGCSPNKMKTVKCAPGVDVCTEAVGAVETIHGQFSMAVRGCGSGLPGKNDRGLDLHGLLAFIQLQQCAQDRCNAKLNLTSRALDPAGNESAYPPNGVECYSCVGLSREACQGTSPPVVSCYNASDHVYKGCFDGNVTLTAANVTVSLPVRGCVQDEFCTRDGVTGPGFTMSGSCCQGSRCNSDLRNKTYFSPREGHHHHHH”, the “soluble on expression in E. coli” value was “not soluble”.

Regarding “AHHHHHHGSVDMSKVKLRIENIVASVDLFAQLDLEKVLDLCPNSKYNPEEFPGIICHLDDPKVALLIFSSGKLVVTGAKSVQDIERAVAKLAQKLKSIGVKFKRAPQIDVQNMVFSGDIGREFNLDVVALTLPNCEYEPEQFPGVIYRVKEPKSVILLFSSGKIVCSGAKSEADAWEAVRKLLRELDKYGLLEEEEEEL”, the “soluble on expression in E. coli” value is on record as “soluble”.

Consider “MEKMYNVGKIVNTHGLIGEIRVIATTDFPEERFQVGNTVYLFEKNSKKPEKLIIRSHRKHKNFDLLMFEGFTGIHQVERMKEGVLKIKETQLTNLEENEFYFHEIIGCTVVTTDGEELGEITEILTPGANDVWVVKGADKKEKLIPYIADVVKEINIDDQKITIEVMEGLLD”, for which the “soluble on expression in E. coli” value is listed as “soluble”.

Turning to “MTAFLPPNLLALFEARPPVQYLPPCQDLLVDKNAKRAPMTGVAQYIQLFEDPKDTPAKIPVVTKAEAKEEKRRQKDELLAYKVEQGIATWNPAENPRASEDPYRTLFVGRINYETSESKLRREFEAYGKIKKLTMVHDEAGKPRGYAFIEYSDKAEMHTAYKKADGIKVDGKRLVVDYERGRTQKTWLPRRLGGGKGDTRKTREAKSVIEEREIASGFGGGYEDRDRERSGSRDRRQDSYRNGGGNDRDRRESSGGFRDNRGGGGGFGGGGRDRFNDRSGGGGYGGDRDRGGDRGGDRGGSRYSTGGGSGGGYRSGGGSSGGGGGGRYGDRR”, the “soluble on expression in E. coli” value is on record as “not soluble”.

As for “MGSDKIHHHHHHMDILRKVAEIHGTPTYVYFEETLRKRSRLVKEVFEGVNLLPTFAVKANNNPVLLKILREEGFGMDVVTKGELLAAKLAGVPSHTVVWNGNGKSRDQMEHFLREDVRIVNVDSFEEMEIWRELNPEGVEYFIRVNPEVDAKTHPHISTGLKKHKFGIPLEDLDSFMERFRSMNIRGLHVHIGSQITRVEPFVEAFSKVVRASERYGFEEINIGGGWGINYSGEELDLSSYREKVVPDLKRFKRVIVEIGRYIVAPSGYLLLRVVLVKRRHNKAFVVVDGGMNVLIRPALYSAYHRIFVLGKQGKEMRADVVGPLCESGDVIAYDRELPEVEPGDIIAVENAGAYGYTMSNNYNSTTRPAEVLVRENGRISLIRRRETEMDIFKDVVM”, the “soluble on expression in E. coli” value is “not soluble”.

As for “MGSDKIHHHHHHMDRSERLIQLISEEGIDAFLIMNIENSARASSVYFSGFTGSFSIILISENTRLLITDSRYTVQAKQETDFEVREVKGGDFIDVLKKTVNDLKIKTIALEEERVSLSLFRRISSAFGDRKFIGIDDEVKQMRMVKDEGEIEKIKQAIEISERAFLETVQQIRAGMTEKEIAALLEYTMRKEGAEGVAFDTIVASGCRSALPHGKASDKVVERGDVIVIDFGATYENYCADITRVVSIGEPSDEVKEVHSIVLEAQERALKIAKAGVTGKLLDSVAREFIREKGYGEFFGHSLGHGIGLEVHEGPAISFRNDSPLPENVVFTVEPGIYLEGKFGIRIEEDVVLKEQGCEILTTLPRSIFVV”, the “soluble on expression in E. coli” value is on record as “not soluble”.

In the case of “GPGSMTSVETRIQALVQRYTLMENNINKLRKALASLGEGQQNANTTPRNEATAVAHHRDPCDLKELQPCPQDTPEVAALRRWCIEHSLTTAVFRWVPSDYYQHTLQWRRDELAAPSVHHLCKSILMENTHCTNKDCGVRENSRYYLIVYPYTEKFDAEMVMRHVKGLNEGLGKKKFNFRLAAPDVALQLTGFGHGAVAPFGTPTEIPVILSDKILQLTPAVFWMGGGHVDCKVRVDVEQFMEVIKPIVASVTTPLSAEELGQLVD”, the “soluble on expression in E. coli” value is on record as “soluble”.

Turning to “SGCIQSITCKARIRRENIVVYDVCATIDQCPTRIEETSPIVLRYKTPYFKASARVVMPPIPRHETWVVGWIQACNQMEFFNTYSDLGMSSWELPDLREGRVKAISDSDGVSYPWYGNTTETVTLVGPTNKISRFSVSMNDNFYPSVTWAVPVSDSNVPLLTRIKRDQSFTTWLVAMNTTTKEKIILQTIKWRMRVDIEVDPLQLLGQRARLVGRTQQEQPRILSRMEPIPPNALVKPNANDAQVLMWRPKRGPPLVVIPPK”, the “soluble on expression in E. coli” value is “soluble”.

As to “MELNGKAPSRRQLNIQHWNTAEGARVLFVEARELPMFDLRVTFAAGSSQDGGTPGLAALTNAMLNEGVAGKDVTAIAEGFEGLGADFGNGSYRDMAVASLRSLSAKDKREPALKLFTEVAGKPTFPEDALKRIKNQMLAGFEYEKQNPGKIAGKALFGKLYGDHPYAHPSDGTAESITGISLAQLRAFHAKAYTGGNAVIALVGDLSRAEAEAIAAQVSAGLPKGPALAAPAQPALEHHHHHH”, the “soluble on expression in E. coli” value is reported as “soluble”.

As for “MEQLSIQTDELQDQFSNCSPASVDSSYSSCSSVEDEIEIYTRLVRNEEPLRRDFFREMSKNSSCSSSFDYGEFGPSSSSRKGSKTTDADLDSLFHSLVETSDQVNTVPKPTKTEVESIPEEFEQKPSSSSHRLPSEMNASITHIKSELDPTMQAFQMPHNDLFLATAAPHYNPFALSNDFMPNPLMPSFTSPFYPQHFPVSDSRRGSQGTTSSSNNTGGTPSPHSSSLPTSPPQLQGFLRSFLNPDNLSTPTSFGVPSETALDADKMCAVCNDRAVCLHYGARTCEGCKGFFKRTVQKNSKYTCAGNKTCPIDKRYRSRCQYCRYQKCLEVGMVKEIVRHGSLSGRRGRLSSKTKLARSEDQPSPPLPLLALMGKAIEDHTNMTVVRQFMQPFDETIALRILHGELHATKKLLMAMPQISEIQPADFQILLSRSFFAIMAIRVANRCGNSTDTIMFESGELFSLNAFPACFQQIIRFMVDKARTFSSLVDWEPQAFAAFIALQFLAGNTEHNVLGLTNKPLVDQVQSTIINALKDHCSGSQNKLAKIVRLTQEFDVFHALGLQALDILYPSHQLPEEFMFLINLTRAPLRSTDAPPACGSPVAPSGSSLFNFQMGPAAF”, the “soluble on expression in E. coli” value was “not soluble”.

On to “MSLKTLENHNRIKVTVNGREIEVYDNLTILQALLQEDIHIPHLCYDIRLERSNGNCGLCVVTLISPDGERDVKACQTPIKEGMVICTNTPKLENYRKIRLEQLLSDHNADCVAPCVMTCPANIDIQSYLRHVGNGDFEAAIRVIKERNPFPIVCGRVCPHTCESQCRRNLVDAPVAINYVKRFAADWDMARPEPWTPEKKPPTGKKIAIVGAGPSGLSAAYYSAIKGHDVTVFERQPHPGGMMRYGIPEYRLPKAILDKEIEMIKKLGVKIMTEKALGIHIRLEDLSKDFDAVYLAIGSWQATPMHIEGEKLDGVWAGINYLEQVAKNVDIPLGDNVVVIGGGNTAIDCARTALRKGAKSVKLVYRCTREEMPAAPYEVEEAIHEGVEMIFLMAPTKIIVKDGKKKLVCIRMQLGEPDRSGRRRPVPIEGSEVEIDADTIIGAIGQSTNTQFLYNDLPVKLNKWGDIEVNGKTLQTSEYNIFAGGDCVTGPATVIEGHHHHHH”, for which the “soluble on expression in E. coli” value is “soluble”.

For the sequence “MAERGFREGTLEEASKILGVDKSSLASLSNLLAEKGVVEVEERVEEHYVLTERGRDALERGLPEEKLVLFLAGRGGEASVEEVRRALGEEAGIALGQAARKGLVVIAGGVVRLAVDQAEALKTITPLKKLLENVASGSKPTVGDELLREALSRGLIRREARRSIVLRLKVNPAEALARARVEAAVLTRDMLKSGEWRRLRFKPYNVKAEPPRVLPARRHFLAEFIERLRDILRELGFREVRGPLVELELFNFDVLFQAQDHPAREIHDSLWIKSPRRGDLSGYSDLVERVASVHERGWKYRWSPEVASRYILRSQTTAVSARILATRPNPPARFFTVGKVFRSDAVGPTRLPEFHQLDGIEGDEGYTFRDLLGRLDEIASMLGLKLKFKPAYFPFTEPSVEGYVKLPNGRWLELFGAGMFRPEVLEAVGVDYPVGAWGFGIERLAMAFYGVSDIRKLYTRNVDEVREMRVRWL”, the “soluble on expression in E. coli” value is listed as “soluble”.

Consider “MGSDKIHHHHHHMIISDVLYGEFEVDQVVEELILSKSVQRLKGIHQTGASYLVNKEWNVTRFDHSVGVMLLVKKLGGSVEEQIAGLLHDVSHTAFSHVVDYVFDNRNESYHEEIFSSVVKHSEIPAILAKYGYNYEEILLDDSKWTLLERSAPELCADRVDYTLRDMYTYGYISLEEAHSFLEDVIEVNGKMVLQNIEMAEWFTETYYKEVIDFFMQPMNSYGNDMLAKTLKLALHKKVIHADDFLLEDDELISKLQQCSDPEVHALVSKVHPNVKVKEDRNDYDLYQNNKVRLIDPSLLREGEVVPSSVVSENIRKMSEIAYEKAVRGMYVKVVSD”, for which the “soluble on expression in E. coli” value was “not soluble”.

Take “RADTLIYMTVNPKTNTTDMVSIPRDTYTKIIGKGTMDKINHSYAFGGTQMTVDTVENFLDVPVDYFVKVNMESFRDVVDTLGGITVNSTFAFSYDGYSFGKGEITLNGKEALAYTRMRKEDPRGDFGRQDRQRQVIQGIINKGAN”: the “soluble on expression in E. coli” value is listed as “not soluble”.

As for “MGSDKIHHHHHHMNPIQHILDTYPLIVLDGAMATELERKGCNLNDSLWSAKILMEEPELIKQVHTDYFAAGADCAITASYQSTFEGFAARGLSEAEARRLIELSVSIAAEARDEFWSLEENRLNRPKPIIAASIGPYGAYLADGSEYRGNYAISEDELIEFHRPRMKALIEAGADVLACETIPCLTEAKAIVRLLKEFPETYAWISFSAKDGLHISDGTPAADCASWLDEHRQIAALGINCTPLQHIPSLIEELKKNTSKPIIVYPNSGEQYDPETKTWNGAACAESYGASARTWHEKGARLIGGCCRTKPENIQEIAAWARSLKTT”, the “soluble on expression in E. coli” value is “not soluble”.

With “MVNLANVLTNATAATLSAWSNTVPLETYFHFDEASGFGDYYLNVSVIWMNETLYETRIVPAIINVREWLDHMEANDPSPSVTNPYETSGYYAFSTVVPVLMGNMKVA”, the “soluble on expression in E. coli” value is on record as “not soluble”.

Consider “MGSDKIHHHHHHHPHSFVDLKNKVLVDGTQLKGFQMEWTMDEIASAELIYEVKNNPDHQAAKKSITAEMEQTAIENHYFSYLYNAKDQPLKFSVKPSNTTFRIAGNRVVFYITFYLSKPYDLKNNAIRFYTYEPSYYMAMEYNNQQDLSINSSECKAKLTQPNVNNSLRLYASSLDKNQKPNMPDGEDNSLGAQFAQTVEVVCE”, for which the “soluble on expression in E. coli” value was “not soluble”.
